Test results: patent US7892567

Molecular target: T1, transcription factor RFX-5, P48382
T1 chain: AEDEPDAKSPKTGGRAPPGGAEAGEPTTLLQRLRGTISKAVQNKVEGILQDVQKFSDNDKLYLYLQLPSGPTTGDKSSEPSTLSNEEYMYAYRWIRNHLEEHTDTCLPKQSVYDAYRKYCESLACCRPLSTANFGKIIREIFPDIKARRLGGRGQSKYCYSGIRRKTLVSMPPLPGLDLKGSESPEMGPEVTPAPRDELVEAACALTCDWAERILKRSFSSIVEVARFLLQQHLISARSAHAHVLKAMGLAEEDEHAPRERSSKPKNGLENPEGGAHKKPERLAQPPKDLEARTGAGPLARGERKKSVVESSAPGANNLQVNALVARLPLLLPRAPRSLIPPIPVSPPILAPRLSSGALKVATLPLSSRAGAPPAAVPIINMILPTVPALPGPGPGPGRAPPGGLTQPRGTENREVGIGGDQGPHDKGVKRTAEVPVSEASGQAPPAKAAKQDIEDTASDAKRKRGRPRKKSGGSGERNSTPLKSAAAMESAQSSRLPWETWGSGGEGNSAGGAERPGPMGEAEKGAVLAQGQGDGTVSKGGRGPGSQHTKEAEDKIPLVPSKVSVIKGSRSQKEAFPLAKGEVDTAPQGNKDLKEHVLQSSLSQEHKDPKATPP

B1: recombinant chlamydial protease-like activity factor (CPAF) from the C. trachomatis L2 genome, fusion protein with a 6-His tag at the N-terminus (protein)
chain: MGFWRTSIMKMNRIWLLLLTFSSAIHSPVRGESLVCKNALQDLSFLEHLLQVKYAPKTWKEQYLGWDLVQSSVSAQQKLRTQENPSTSFCQQVLADFIGGLNDFHAGVTFFAIESAYLPYTVQKSSDGRFYFVDIMTFSSEIRVGDELLEVDGAPVQDVLATLYGSNHKGTAAEESAALRTLFSRMASLGHKVPSGRTTLKIRRPFGTTREVRVKWRYVPEGVGDLATIAPSIRAPQLQKSMRSFFPKKDDAFHRSSSLFYSPMVPHFWAELRNHYATSGLKSGYNIGSTDGFLPVIGPVIWESEGLFRAYISSVTDGDGKSHKVGFLRIPTYSWQDMEDFDPSGPPPWEEFAKIIQVFSSNTEALIIDQTNNPGGSVLYLYALLSMLTDRPLELPKHRMILTQDEVVDALDWLTLLENVDTNVESRLALGDNMEGYTVDLQVAEYLKSFGRQVLNCWSKGDIELSTPIPLFGFEKIHPHPRVQYSKPICVLINEQDFSCADFFPVVLKDNDRALIVGTRTAGAGGFVFNVQFPNRTGIKTCSLTGSLAVREHGAFIENIGVEPHIDLPFTANDIRYKGYSEYLDKVKKLVCQLINNDGTIILAEDGSF
  degradation of the transcription factor RFX-5: the biological activity of recombinant CPAF was confirmed by the ability to degrade the transcription factor, RFX-5
